Assay results taken from patent publication US20220162334A1 (SHANGHAI HENLIUS BIOTECH, published 2022).
Positions count from the first letter of the chain named.

T1: mouse CD73 on mouse mammary carcinoma 4T1 cells (mouse, UniProt Q61503 29-551)
T1 construct: whole, on cells
T1 sequence (looked up): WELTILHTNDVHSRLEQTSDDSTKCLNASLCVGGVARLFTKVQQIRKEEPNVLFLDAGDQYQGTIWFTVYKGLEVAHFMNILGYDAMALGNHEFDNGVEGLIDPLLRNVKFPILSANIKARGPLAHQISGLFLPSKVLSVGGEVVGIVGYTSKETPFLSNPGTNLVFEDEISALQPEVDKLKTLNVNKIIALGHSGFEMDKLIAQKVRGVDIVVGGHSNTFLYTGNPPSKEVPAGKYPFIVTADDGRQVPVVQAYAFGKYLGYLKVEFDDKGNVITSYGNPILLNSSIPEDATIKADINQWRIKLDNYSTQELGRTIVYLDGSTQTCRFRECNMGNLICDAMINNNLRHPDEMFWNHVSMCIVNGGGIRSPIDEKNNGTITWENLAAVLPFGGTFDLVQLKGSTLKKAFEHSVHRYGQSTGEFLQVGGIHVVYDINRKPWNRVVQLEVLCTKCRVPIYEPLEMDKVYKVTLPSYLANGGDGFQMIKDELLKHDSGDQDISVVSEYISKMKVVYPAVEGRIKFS

T2: human CD73 on CD73-expressing human tumor cells (MDA-MB-231, NCI-H292) (human, UniProt P21589 27-549)
T2 construct: whole, on cells; The cell line of each result is named under assay or readout; also called cell surface CD73; surface CD73
T2 sequence (looked up): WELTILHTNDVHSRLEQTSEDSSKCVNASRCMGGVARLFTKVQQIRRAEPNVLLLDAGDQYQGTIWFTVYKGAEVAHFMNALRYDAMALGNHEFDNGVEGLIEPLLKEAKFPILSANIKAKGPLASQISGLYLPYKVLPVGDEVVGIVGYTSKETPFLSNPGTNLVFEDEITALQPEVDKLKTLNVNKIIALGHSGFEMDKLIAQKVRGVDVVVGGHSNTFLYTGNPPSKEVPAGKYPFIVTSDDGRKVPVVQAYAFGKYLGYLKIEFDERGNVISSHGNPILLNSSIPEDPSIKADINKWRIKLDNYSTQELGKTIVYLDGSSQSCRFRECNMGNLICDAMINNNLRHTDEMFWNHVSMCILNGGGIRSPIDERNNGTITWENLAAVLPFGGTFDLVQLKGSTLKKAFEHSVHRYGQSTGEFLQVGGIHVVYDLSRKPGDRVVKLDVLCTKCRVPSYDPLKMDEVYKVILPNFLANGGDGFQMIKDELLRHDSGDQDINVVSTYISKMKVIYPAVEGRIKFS

B1: N1#9-PH (antibody, human IgG2, lambda, V domains shown)
VH: EVQLVESGGGLVQPGRSLRLSCAASGFTFDDYAMHWVRLAPGKGLEWVSGISWNSGSIGYADSVRGRFTISRDNAKNSLYLQMNSLRAEDTALYYCAKDMGWSLLKTNYYGMDVWGQGTTVTVSS
VL: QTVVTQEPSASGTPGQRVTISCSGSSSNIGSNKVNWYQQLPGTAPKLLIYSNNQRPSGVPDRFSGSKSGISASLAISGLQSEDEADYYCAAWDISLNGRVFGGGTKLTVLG
notes: Full-length human IgG2 antibody; also called antibody variant N1#9-PH; N1 top variant
B2: N4#6-3-P (antibody, human IgG2, lambda, V domains shown)
VH: QVQLVQSGAEVKKSGSSVKVSCKASGGTFSSYAISWVRQAPGQGLEWMGGIIPIFGTANYAQKFQGRVTITADESTSIAYMELSSLRSEDTAVYYCASDGAVAAYDAFLIWGQGTMVTVSS
VL: QAVLTQPSSVSGAPGQRVTISCTGTSSNIGLGYDIHWYQQLPGTAPKLLMYRFDRRPSGVPDRFSGSKSGTSASLTITGLQVEDEADYYCQSYDSGQRGWVFGGGTKLTVLG
notes: Full-length human IgG2 antibody; also called antibody variant N4#6-3-P; N4 top variant
B3: N4#6-4-P (antibody, human IgG2, lambda, V domains shown)
VH: B2 VH with G50M
VL: B2 VL with L31A, Y33F, D54S
notes: Full-length human IgG2 antibody; also called antibody variant N4#6-4-P; N4 top variant

Tests used:
[1] = target: T1, mouse CD73 on mouse mammary carcinoma …; assay: flow cytometry on 4T1 cells, FITC anti-human IgG (FIG. 24A)
Procedure: Binding of anti-CD73 antibodies was assessed by incubating the 4T1 or LLC-MK2 cells (1E5 cells/test) with the serially diluted antibodies in FACS buffer (PBS with 2% FBS) at 4° C. for 30 minutes. The cells were washed with FACS buffer and the binding was detected with FITC-labeled goat anti-human IgG (H+L) antibodies at 4° C. for another 30 minutes. The binding of antibodies to cell surface was measured by the mean fluorescent intensity (MFI) of staining. Flow cytometric analyses were performed using the Cytomics FC500 or CytoFLEX flow cytometry (Beckman Coulter Inc.).
FIGS. 24A and 24B illustrate cross-binding of N1 and N4 top variants to mouse and monkey CD73-expressing cells. Anti-CD73 antibodies were tested for the binding to CD73-expressing mouse mammary carcinoma 4T1 cells (FIG. 24A) and monkey kidney epithelial LLC-MK2 cells (FIG. 24B) by flow cytometry. HLX01 was used as the negative control. […] N1 and N4 top variants cannot cross-bind to mouse CD73.

[2] = target: T2, human CD73 on CD73-expressing human …; assay: flow cytometry on MDA-MB-231 cells (FIG. 16B)
Procedure: Whole cell binding ability of anti-CD73 antibodies were tested by incubating the MDA-MB-231 or NCI-H292 cells with the serial-diluted antibodies in FACS buffer (PBS with 2% FBS) at 4° C. for 30 minutes. Cells were washed with FACS buffer and the binding was detected with FITC-labeled goat anti-human IgG (H+L) antibodies (or PE-labeled goat anti-human IgG Fcγ) at 4° C. for another 30 minutes. The binding of antibodies to cell surface was measured by the mean fluorescent intensity (MFI) of staining. Flow cytometric analyses were performed using the Cytomics FC500 or CytoFLEX flow cytometry (Beckman Coulter Inc.). FIGS. 2B and 2C show selected anti-CD73 antibodies binding to CD73-expressing human tumor cells MDA-MB-231 (human breast adenocarcinoma) cells (FIG. 2B), and NCI-H292 (human mucoepidermoid pulmonary carcinoma) cells (FIG. 2C).
FIGS. 16A-16C show CD73 binding ability of N1 and N4 top variants. Anti-CD73 antibodies were tested the binding to recombinant human CD73 proteins by ELISA (FIG. 16A) and CD73-expressing human tumor cells, MDA-MB-231 (FIG. 16B) and NCI-H292 (FIG. 16C), by flow cytometry. Anti-CD73 ref-1 and anti-CD73 ref-2 antibodies were used as the positive controls, while HLX01 (anti-CD20) was used as the negative control. […] The binding of N1#9-PH to CD73-expressing NCI-H292 cells is slightly better than that of N4#6-3-P and N4#6-4-P.

Row | Binder | binding result [1] | binding result [2]
1 | B1 | no binding | binds
2 | B2 | no binding | binds
3 | B3 | no binding | binds
